In patent US20240390460A1 (Regeneron, published 2024):

T1: Human IL2RG (interleukin-2 receptor subunit gamma), wild type (human, UniProt P31785 23-369)
T1 construct: also called wild type human IL2RG; WT IL2RG
T1 sequence: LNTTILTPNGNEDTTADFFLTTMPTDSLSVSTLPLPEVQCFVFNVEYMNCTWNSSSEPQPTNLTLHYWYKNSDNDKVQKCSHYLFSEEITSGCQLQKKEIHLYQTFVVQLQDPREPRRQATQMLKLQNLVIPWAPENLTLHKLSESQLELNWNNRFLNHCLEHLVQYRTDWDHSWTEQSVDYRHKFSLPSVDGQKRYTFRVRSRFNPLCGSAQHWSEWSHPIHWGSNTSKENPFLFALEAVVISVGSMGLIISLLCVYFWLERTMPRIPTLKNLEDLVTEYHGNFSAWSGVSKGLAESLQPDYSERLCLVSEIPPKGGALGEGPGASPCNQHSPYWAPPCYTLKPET

T2: murine Il2rg (murine, UniProt P34902 23-369)
T2 construct: whole, on cells; also called mouse IL2RG; murine IL2rg receptor
T2 sequence (looked up): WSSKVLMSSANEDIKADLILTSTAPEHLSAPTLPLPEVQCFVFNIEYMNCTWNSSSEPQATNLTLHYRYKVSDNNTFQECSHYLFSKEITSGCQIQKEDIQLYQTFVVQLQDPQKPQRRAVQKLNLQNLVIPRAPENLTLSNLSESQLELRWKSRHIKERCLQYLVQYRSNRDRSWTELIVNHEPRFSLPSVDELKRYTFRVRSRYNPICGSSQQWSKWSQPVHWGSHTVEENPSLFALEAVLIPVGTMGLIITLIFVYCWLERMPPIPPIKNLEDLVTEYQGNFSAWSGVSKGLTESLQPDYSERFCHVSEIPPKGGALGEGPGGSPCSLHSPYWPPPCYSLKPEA

T3: recombinant human IL2RG extracellular domain (human, UniProt P31785 23-262)
T3 construct: also called IL2RG ectodomain; ECD
T3 sequence: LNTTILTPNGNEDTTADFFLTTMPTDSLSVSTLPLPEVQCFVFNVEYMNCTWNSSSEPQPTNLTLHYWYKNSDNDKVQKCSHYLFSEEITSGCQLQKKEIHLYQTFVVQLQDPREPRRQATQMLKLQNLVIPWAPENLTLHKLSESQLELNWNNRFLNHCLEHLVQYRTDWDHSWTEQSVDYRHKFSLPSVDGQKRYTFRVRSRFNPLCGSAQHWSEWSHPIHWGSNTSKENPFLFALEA


How the values were obtained:
[1] = biological target: T1, Human IL2RG (interleukin-2 receptor …); experiment: flow cytometry on iPSC-derived NK cells
[2] = biological target: T2, murine Il2rg; experiment: stated in Example 1 for donor T cells of wild-type mice; no binding assay described
[3] = biological target: T3, recombinant human IL2RG extracellular …; experiment: cryoEM of the complex

| binding result [1] | binding result [2] | binding result [3] | Binder |
| --- | --- | --- | --- |
| binds | no binding | – | REGN7257 (antibody, human IgG4 S228P, kappa, V domains shown, also called H4H12889P; anti-IL2RG antibody) VH: EVQLVESGGGLVQPGGSLRLSCAASGFIFSSYEMHWVRQAPGKGLEWISYISSSGTTIYYADSVKGRFTISRDNAKNSLYLHMNSLRAEDTAVYYCTRARITGTFDVFDIWGQGTMVTVSS VL: DIQMTQSPSSLSASVGDRVTITCRASQSISSYLNWYQQKPGKAPKLLIFAASNLQSGVPSRFSGSRSGTDFTLTISSLQPEDFATYYCQQNYNIPYTFGQGTKLEIKR |
| – | – | binds | REGN7257 Fab region (Fab, V domains shown, Fab region of REGN7257 used for cryoEM) VH: EVQLVESGGGLVQPGGSLRLSCAASGFIFSSYEMHWVRQAPGKGLEWISYISSSGTTIYYADSVKGRFTISRDNAKNSLYLHMNSLRAEDTAVYYCTRARITGTFDVFDIWGQGTMVTVSS VL: DIQMTQSPSSLSASVGDRVTITCRASQSISSYLNWYQQKPGKAPKLLIFAASNLQSGVPSRFSGSRSGTDFTLTISSLQPEDFATYYCQQNYNIPYTFGQGTKLEIK |
